Laboratory results taken from patent publication US20100144636A1, “PEPTIDES DERIVED FROM RAS-P21 AND USES THEREFOR” (THE RESEARCH FOUNDATION OF STATE UNIVERSITY OF NEW YORK, priority 2008, published 2010).

B1: MKP-1T4: MAPK phosphatase that de-activates this kinase (protein, UniProt P28562 1-367, looked up)
Dual specificity protein …: MVMEVGTLDAGGLRALLGERAAQCLLLDCRSFFAFNAGHIAGSVNVRFSTIVRRRAKGAMGLEHIVPNAELRGRLLAGAYHAVVLLDERSAALDGAKRDGTLALAAGALCREARAAQVFFLKGGYEAFSASCPELCSKQSTPMGLSLPLSTSVPDSAESGCSSCSTPLYDQGGPVEILPFLYLGSAYHASRKDMLDALGITALINVSANCPNHFEGHYQYKSIPVEDNHKADISSWFNEAIDFIDSIKNAGGRVFVHCQAGISRSATICLAYLMRTNRVKLDEAFEFVKQRRSIISPNFSFMGQLLQFESQVLAPHCSAEAGSPAMAVLDRGTSTTTVFNFPVSIPVHSTNSALSYLQSPITTSPSC
B2: GST-pi: glutathione-S-transferase, pi isozyme, selective inhibitor of JNK-induced phosphorylation of jun (protein, UniProt P09211 2-210, looked up)
Glutathione S-transferase P: PPYTVVYFPVRGRCAALRMLLADQGQSWKEEVVTVETWQEGSLKASCLYGQLPKFQDGDLTLYQSNTILRHLGRTLGLYGKDQQEAALVDMVNDGVEDLRCKYISLIYTNYEAGKDDYVKALPGQLKPFETLLSQNQGGKTFIVGDQISFADYNLLDLLLIHEVLAPGCLDAFPLLSAYVGRLSARPKLKAFLASPEYVNLPINGNGKQ

What was measured:
[1] = tested on: insulin-induced oocyte maturation; experiment: Insulin-induced oocyte maturation (activated wild-type ras-p21); assay type: cell-based, Xenopus laevis; conditions: oocytes induced to mature with insulin
Text: (§1) The Applicants have synthesized both of the inventive peptides, referred to as PNC-7 and PNC-2, and assayed them for their abilities to block oncogenic ras-p21 induction of maturation of Xenopus laevis oocytes. Injection of oncogenic, but not wild-type ras-p21, into these oocytes induce oocyte maturation, i.e., completion of the second meiotic division, as measured by germinal vesicle membrane breakdown (GVBD). Insulin also induces oocyte maturation in a manner that requires activation of endogenous wild-type ras-p21.

[2] = tested on: oncogenic (Val 12-containing) ras-p21-induced oocyte maturation; experiment: Oncogenic ras-p21-induced oocyte maturation (GVBD); assay type: cell-based, Xenopus laevis; conditions: injected/co-injected with oncogenic ras-p21 into oocytes
Text: as §1

| Molecule | inhibition of insulin-induced oocyte maturation [1] | inhibition of oncogenic ras-p21-induced oocyte maturation [2] |
| --- | --- | --- |
| B1 | considerably less effect | completely blocks |
| B2 | no effect | complete inhibition of oocyte maturation |
